Assay [1] concerns the target PEX14 16-80 (Homo sapiens) (UniProt O75381). Briefly: ITC. To be noted: cited from earlier work.
Assay [2] has the same target. Kind of assay: SPR. The conditions noted are these: cited from earlier work.
For assay [3], the target named is His-tagged transcriptional activation domain of the tumor suppressor protein p53 (UniProt P04637). Briefly: solution-phase LSPR peak shift of nanoparticles (UV–vis); hTAD ([…]) immobilised by its His-tag on NTA-Ni AgDNP@Au nanobiosensors (~0.025 nM), NCBD (0.27 μM) added; 10 mM Tris, 10 mM NaCl, 0.025 wt % Tween 20, pH 7.5; nanoparticles aggregated after several minutes.
Sequence of His-tagged transcriptional activation domain of the tumor suppressor protein p53 (P04637 whole entry, the tested form may be a part): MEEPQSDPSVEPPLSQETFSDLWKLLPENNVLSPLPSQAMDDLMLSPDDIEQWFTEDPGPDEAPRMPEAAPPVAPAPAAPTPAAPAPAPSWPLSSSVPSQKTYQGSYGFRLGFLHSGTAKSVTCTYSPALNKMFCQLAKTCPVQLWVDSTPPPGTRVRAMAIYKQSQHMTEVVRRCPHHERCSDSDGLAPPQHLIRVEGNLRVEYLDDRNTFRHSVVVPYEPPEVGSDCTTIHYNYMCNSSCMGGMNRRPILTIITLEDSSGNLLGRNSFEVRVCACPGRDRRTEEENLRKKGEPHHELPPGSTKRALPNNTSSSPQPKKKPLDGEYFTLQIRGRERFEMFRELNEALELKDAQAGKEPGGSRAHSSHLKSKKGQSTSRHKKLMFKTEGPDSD

For assay [4] the target is unchanged. Kind of assay: solution-phase LSPR peak shift of nanoparticles (UV–vis); hTAD ([…]) immobilised by its His-tag on NTA-Ni AgDNP@Au nanobiosensors (~0.025 nM), NCBD (0.27 μM) added; 10 mM Tris, 30 mM NaCl, 0.025 wt % Tween 20, pH 7.5; near equilibrium (25 min).
Assay [5] shares this target. Kind of assay: solution-phase LSPR peak shift of nanoparticles (UV–vis); hTAD ([…]) immobilised by its His-tag on NTA-Ni AgDNP@Au nanobiosensors (~0.025 nM), NCBD (0.27 μM) or BSA ([…]) added; 10 mM Tris, 150 mM NaCl, 0.025 wt % Tween 20, pH 7.5; near equilibrium (25 min).

Sequence of PEX14 16-80 (Homo sapiens) (O75381 16-80): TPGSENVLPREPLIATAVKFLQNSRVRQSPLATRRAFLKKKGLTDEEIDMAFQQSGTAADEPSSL

Usually Kd stands for the equilibrium constant for the complex coming apart. For PEX5 1-113 (from UniProt P50542), the values for the Kd in assay [1] and in assay [2] were 157 nM and 87 nM, respectively.

Take PEX5 W4 motif W4 (from UniProt P50542): the Kd in assay [1] was 6300 nM.

On to “nuclear receptor coactivator binding domain of the CREB-binding protein (from UniProt Q92793 1-2442) (domain or fragment)”, for which the LSPR peak redshift after addition of NCBD (10 mM NaCl) in assay [3] amounted to 6.2 nm. For the same substance, the second LSPR peak redshift (30 mM NaCl) in assay [4] worked out at 3.2 nm. For the same substance, in assay [5], the second LSPR peak redshift (150 mM NaCl) stood at 1 nm.

(Values after publication PMC11959585.)
